What all share (assay): ELISA
What all share (conditions): 0.5 μg coated receptor, read off a plot
(ELISA stands for enzyme-linked immunosorbent assay.)

Assay [1] concerns the target Manduca sexta aminopeptidase N 1 (APN1), recombinant.
Assay [2] addresses Manduca sexta CR12 CAD fragment corresponding to cadherin repeat 12 (CAD-CR12).
For assay [3], the target named is Manduca sexta alkaline phosphatase (ALP), recombinant.

With “Cry1Ab wild type toxin (from UniProt P0A370) G439D”, the response is 0.09 ABS (490 nm) in assay [1] (toxin 6.25 nM, parent: est. 0.27); 0.12 ABS (490 nm) in assay [1] (toxin 12.5 nM, parent: est. 0.48); 0.27 ABS (490 nm) in assay [1] (toxin 25 nM, parent: est. 0.95); 0.61 ABS (490 nm) in assay [1] (toxin 50 nM, parent: est. 1.6); 1.1 ABS (490 nm) in assay [1] (toxin 100 nM, parent: est. 2.1); 0.12 ABS (490) in assay [2] (toxin 6.25 nM, parent: est. 0.46). Moreover, the response in assay [2] (toxin 12.5 nM, parent: est. 0.76) is 0.2 ABS (490); in assay [2] (toxin 25 nM, parent: est. 1.3), 0.45 ABS (490); in assay [2] (toxin 50 nM, parent: est. 2.0), 0.76 ABS (490); in assay [2] (toxin 100 nM, parent: est. 2.4), 1.2 ABS (490); in assay [3] (toxin 6.25 nM, parent: est. 0.23) it was 0.03 ABS (490); in assay [3] (toxin 12.5 nM, parent: est. 0.39) it was 0.05 ABS (490). Moreover, the response is 0.13 ABS (490) in assay [3] (toxin 25 nM, parent: est. 0.75); 0.34 ABS (490) in assay [3] (toxin 50 nM, parent: est. 1.5); 0.68 ABS (490) in assay [3] (toxin 100 nM, parent: est. 2.2).

The values above are taken from paper PMC5862903.
